The target of this assay is ribosomes (crude ribosome pellet). Put plainly: co-sedimentation.

In turn, “trimeric SEC61 complex (from UniProt P61619 1-476; P60468 1-96; P60059 1-68)” returned a half-time of dissociation after harringtonine (in wild-type cells) of 15 min and a half-time of dissociation after puromycin (in wild-type cells) of 1 min.
